{"source": "patent US10828372B2", "about": "“Compositions and methods for the inhibition of fibrosis” (WISCONSIN ALUMNI RESEARCH FOUNDATION, priority 2017, dated 2020)", "test": "Fluorescence imaging (IVIS) of subcutaneous dose absorption", "type": "in vivo, mouse", "method": "Preparation of Animal Experiment FUD and 10-40 kDa PEG-FUD Drug Dose: A 12.5 mg FUD equivalents per kg of mouse weight drug dose spiked with 1.5% Cy5 labeled drug was prepared by mixing an appropriate amount of unlabeled and labeled drug in a conical vial. The drug was then dialyzed ON into phosphate buffered saline (pH 7.4) using a 3000 MWCO dialysis membrane. The total volume of the dose was reduced to the appropriate value using a 3000 MWCO Amicon® Ultra-15 centrifugal unit. The final concentration of the drug was determined using a UV-vis spectrophotometer and the 646 nm extinction coefficient of Cy5, ε=271000 L·mol^−1·cm^−1.\n10 week old mice weighing 20-23 g were placed under 2% isoflurane anesthesia and positioned on their abdomen inside of an IVIS Spectrum In Vivo Imaging System. A 100 uL dose containing 0.27 mg (12.5 mg/kg) of FUD or FUD equivalents of 10-40 kDa PEG-FUD that was spiked with 1.5% Cy5 labeled drug was delivered subcutaneously between the shoulder blades of the animals (n=3 per treatment group). The animals were imaged before the injection, immediately following injection, and at time points of 30 minutes and 1, 3, 6, 12, 24, 36, and 48 hours. The animals were sacrificed following the last time point and their organs were harvested for ex vivo fluorescence imaging and drug extraction and quantification. LivingImage® (PerkinElmer) software was used to analyze the views of each animal group. The autodraw feature of the software set to a 5% threshold was used to create unique regions of interest (ROI) on each animal at t=30 mins views that were consistently applied to each subsequent time point views to quantify drug levels present at the site of injection. Baseline autoflorescence values calculated from ROIs applied to “before injection” views were subtracted from the values of each time point's animals. The ROI values obtained from the t=30 mins views were used to calculate % dose remaining for each subsequent time point.", "data": [{"substance": "FUD: 49 amino acid FUD peptide, SEQ ID NO: 1, recombinantly expressed, His-tag removed; inhibitor of fibronectin fibrillogenesis (KDQSPLAGESGETEYITEVYGNQQNPVDIDKKLPNETGFSGNMVETEDT; human) [reference compound]", "values": [{"measurement": "% dose remaining at the site of injection after 24 hours", "setting": "s.c. 12.5 mg/kg FUD equivalents, 24 hours", "result": 0.3, "unit": "%"}, {"measurement": "apparent half-life at the site of injection", "setting": "s.c. 12.5 mg/kg, spiked with 1.5% Cy5 labeled drug, nude mice", "result": 35, "unit": "min"}]}]}
